These results are taken from the Immune Epitope Database (IEDB).

As usually defined, the pKd is the Kd on a negative log10 scale, so that one unit is a factor of ten.

For one assay, the target named is HLA-B*51:01. Nature of the assay: IEDB peptide-MHC binding, purified MHC/competitive/radioactivity; filed as Kd, often an IC50 or EC50 that approximates it; ≥ and ≤ were set here for values at or beyond the usual limits of such assays.
The target of a further assay is HLA-B*07:02. The description is as above.
Another assay deals with HLA-B*54:01. The assay is described as above.
In a further assay the target is HLA-B*35:01. The assay is described as above.
Another assay concerns the target HLA-B*53:01. The description is as above.
The target of assay [1] is HLA-A*29:02. Nature of the assay: IEDB peptide-MHC binding, purified MHC/competitive/fluorescence; filed as Kd, often an IC50 or EC50 that approximates it; ≥ and ≤ were set here for values at or beyond the usual limits of such assays. The settings on record: source organism: Escherichia coli HS.
Assay [2] addresses HLA-A*31:01. Described as above.
Assay [3] concerns the target HLA-A*03:01. Described as above.
Another assay has as its target HLA-A*11:01. The description is as above.
The next assay addresses HLA-A*69:01. Nature of the assay: IEDB peptide-MHC binding, purified MHC/direct/fluorescence; filed as Kd, often an IC50 or EC50 that approximates it; ≥ and ≤ were set here for values at or beyond the usual limits of such assays.
In another assay the target is HLA-A*02:01. Described as above.
For a further assay, the target named is HLA-A*02:03. The description is as above. The settings on record: source organism: Variola virus.
Another assay deals with HLA-A*02:11. Described as above.
The next assay addresses HLA-B*15:01. The assay is described as above. The settings on record: source organism: Yellow fever virus.
In a further assay the target is HLA-B*40:01. The assay is described as above. The settings on record: source organism: Yellow fever virus.
For assay [4], the target named is HLA-A*29:02. Described as above. The settings on record: source organism: Yellow fever virus.
The target in assay [5] is HLA-B*57:01. The assay is described as above. The settings on record: source organism: Yellow fever virus.
The target in another assay is HLA-B*44:02. The description is as above. The settings on record: source organism: Yellow fever virus.
The target in the next assay is HLA-B*27:05. The description is as above. The settings on record: source organism: Yellow fever virus.
For assay [6], the target named is HLA-A*31:01. Described as above. The settings on record: source organism: Yellow fever virus.
The target in another assay is HLA-B*58:01. Described as above. The settings on record: source organism: Yellow fever virus.
A further assay concerns the target HLA-A*01:01. The assay is described as above. The settings on record: source organism: Yellow fever virus.
Assay [7] concerns the target HLA-A*03:01. The assay is described as above.
Another assay deals with HLA-B*48:01. Described as above. The settings on record: source organism: Yellow fever virus.
Assay [8] concerns the target HLA-B*46:01. The description is as above. The settings on record: source organism: Yellow fever virus.
The target of assay [9] is HLA-B*18:01. The description is as above. As to conditions: source organism: Yellow fever virus.
A further assay deals with HLA-A*24:03. Nature of the assay: IEDB peptide-MHC binding, purified MHC/competitive/fluorescence; filed as Kd, often an IC50 or EC50 that approximates it; ≥ and ≤ were set here for values at or beyond the usual limits of such assays. As to conditions: source organism: Burkholderia pseudomallei K96243.
Another assay addresses HLA-B*15:17. The assay is described as above. The settings on record: source organism: Burkholderia pseudomallei K96243.
Assay [10] deals with HLA-B*57:01. The assay is described as above. The settings on record: source organism: Burkholderia pseudomallei K96243.
For another assay, the target named is HLA-B*27:03. The assay is described as above. The settings on record: source organism: Burkholderia pseudomallei K96243.
The next assay addresses HLA-B*39:01. The description is as above. The settings on record: source organism: Burkholderia pseudomallei K96243.
Assay [11] concerns the target HLA-B*46:01. The assay is described as above. As to conditions: source organism: Burkholderia pseudomallei K96243.
Assay [12] deals with HLA-B*18:01. The assay is described as above. The settings on record: source organism: Burkholderia pseudomallei K96243.
Another assay concerns the target HLA-A*26:01. The description is as above. As to conditions: source organism: Burkholderia pseudomallei K96243.
The target of another assay is HLA-A*02:12. Nature of the assay: IEDB peptide-MHC binding, purified MHC/direct/fluorescence; filed as Kd, often an IC50 or EC50 that approximates it; ≥ and ≤ were set here for values at or beyond the usual limits of such assays. The settings on record: source organism: Vibrio cholerae V52.
Where [13] appears, read: source organism: SARS coronavirus Tor2.
[14] abbreviates: source organism: Vaccinia virus WR.
Setting [15] is: source organism: Mammarenavirus brazilense.
[16] abbreviates: source organism: Mammarenavirus guanaritoense.
Setting [17] is: source organism: Encephalitozoon cuniculi GB-M1.
[18] abbreviates: source organism: Triticum aestivum.
Setting [19] is: source organism: Camelpox virus M-96.
The mark [20] stands for this setting: source organism: Yellow fever virus.
Where [21] appears, read: source organism: Burkholderia pseudomallei K96243.

pKd: −log10 of the molar value.

As to VPANSTVLSF, the pKd in the assay with HLA-B*51:01 (setting [13]) is 5.49; with HLA-B*07:02 (setting [13]) it was 5.77; in the assay with HLA-B*54:01 (setting [13]), 4.77; in the assay with HLA-B*35:01 (setting [13]) it was 6.45; with HLA-B*53:01 (setting [13]), 7.02.

Regarding SPPLISILMI, the pKd in the assay with HLA-B*51:01 (setting [14]) was 5.94; in the assay with HLA-B*07:02 (setting [14]) it was 6.00; with HLA-B*54:01 (setting [14]) it was 5.12; in the assay with HLA-B*35:01 (setting [14]) it was at most 4.16; with HLA-B*53:01 (setting [14]), 5.65.

For TPTQLAETI, the negative-log Kd (pKd) with HLA-B*51:01 (setting [15]) is 5.85; in the assay with HLA-B*07:02 (setting [15]), 5.74; in the assay with HLA-B*54:01 (setting [15]) it was 4.82; in the assay with HLA-B*35:01 (setting [15]), 6.18; with HLA-B*53:01 (setting [15]) it was 6.74.

Consider MPASWVMRIM, for which the negative logarithm of the Kd (pKd) is 8.06 with HLA-B*51:01 (setting [13]); 8.07 in the assay with HLA-B*07:02 (setting [13]); 7.16 with HLA-B*54:01 (setting [13]); 7.74 with HLA-B*35:01 (setting [13]); 7.20 with HLA-B*53:01 (setting [13]).

As for KPINLSNSV, the pKd is 5.67 with HLA-B*51:01 (setting [16]); 7.64 with HLA-B*07:02 (setting [16]); 6.71 in the assay with HLA-B*54:01 (setting [16]); 6.73 in the assay with HLA-B*35:01 (setting [16]); 5.94 with HLA-B*53:01 (setting [16]).

In turn, VVIPTAALQ had a negative logarithm of the Kd (pKd) with HLA-A*29:02 [1] of 6.13.

As to ILSFPYLFK, the results for the pKd with HLA-A*31:01 [2] (setting [17]), with HLA-A*03:01 [3] (setting [17]) and with HLA-A*11:01 (setting [17]) were at most 4.70, 8.54 and 8.42, respectively.

Consider QPQEQVPL, for which the negative logarithm of the Kd (pKd) in the assay with HLA-B*51:01 (setting [18]) was 7.39; with HLA-B*07:02 (setting [18]) it was at most 4.06; with HLA-B*54:01 (setting [18]), at most 4.36; with HLA-B*35:01 (setting [18]), at most 4.06; with HLA-B*53:01 (setting [18]) it was at most 4.06.

With FLQQSIFRF, the pKd with HLA-A*69:01 (setting [19]) was at most 4.70; with HLA-A*02:01 (setting [19]) it was 6.81; with HLA-A*02:03 it was 6.13; with HLA-A*02:11 (source organism: Variola virus) it was 8.70.

Regarding HAGAKSFYK, in the assay with HLA-A*11:01 (source organism: Influenza A virus (A/California/04/2009(H1N1))), the pKd was 8.26.

Consider NPAWRKAVFI, for which the pKd with HLA-B*51:01 (setting [13]) is at most 4.38; with HLA-B*07:02 (setting [13]), 5.47; with HLA-B*54:01 (setting [13]) it was at most 4.16; in the assay with HLA-B*35:01 (setting [13]), at most 4.16; with HLA-B*53:01 (setting [13]) it was at most 4.38.

Consider PHAATIRVL, for which the pKd with HLA-B*15:01, in the assay with HLA-B*40:01, in the assay with HLA-A*29:02 [4], in the assay with HLA-A*69:01 (setting [20]), with HLA-A*02:01 (setting [20]) and in the assay with HLA-B*57:01 [5] was at most 4.70 throughout. In addition, the pKd in the assay with HLA-B*44:02, with HLA-B*27:05, in the assay with HLA-A*31:01 [6], with HLA-B*58:01, with HLA-A*01:01 and with HLA-A*03:01 [7] (setting [20]) was at most 4.70 each time. Moreover, the pKd in the assay with HLA-B*48:01, in the assay with HLA-B*46:01 [8] and with HLA-B*18:01 [9] was at most 4.70 throughout.

In the case of LMRRFRFTV, the pKd with HLA-A*24:03 was at most 4.70; with HLA-B*15:17 it was at most 4.70; with HLA-B*57:01 [10], at most 4.70; with HLA-A*31:01 [2] (setting [21]), 6.58; with HLA-B*27:03, at most 4.70; with HLA-B*39:01, at most 4.70. Also, the negative logarithm of the Kd (pKd) with HLA-A*03:01 [3] (setting [21]), with HLA-B*46:01 [11], with HLA-B*18:01 [12] and with HLA-A*26:01 was at most 4.70 each time.

Regarding PPYCTIAPV, the pKd was at most 4.56 with HLA-B*51:01 (setting [18]); 6.69 in the assay with HLA-B*07:02 (setting [18]); 5.97 with HLA-B*54:01 (setting [18]); at most 4.67 with HLA-B*35:01 (setting [18]); 4.94 in the assay with HLA-B*53:01 (setting [18]).

As to FLILCSVLL, the pKd is 5.38 with HLA-A*69:01 (source organism: Vibrio cholerae) and 8.15 with HLA-A*02:12.

Regarding RLYNFSFLN, the pKd with HLA-A*03:01 [7] (source organism: Bacillus anthracis) is 6.31; in the assay with HLA-A*02:11 (source organism: Bacillus cereus H3081.97), at least 9.00.

As to DPTFQLLNM, the pKd was 5.47 with HLA-B*51:01 (setting [14]); at most 4.11 with HLA-B*07:02 (setting [14]); at most 4.11 with HLA-B*54:01 (setting [14]); 5.95 with HLA-B*35:01 (setting [14]); 6.63 with HLA-B*53:01 (setting [14]).

In the case of SPPIPMSRL, the pKd in the assay with HLA-B*51:01 (setting [14]) is 6.04; with HLA-B*07:02 (setting [14]), 9.12; with HLA-B*54:01 (setting [14]), at most 4.38; with HLA-B*35:01 (setting [14]), at most 4.27; in the assay with HLA-B*53:01 (setting [14]), 5.03.
